# Measurements taken from patent publication US10239925B2, “Peptides and combination of peptides for use in immunotherapy against ovarian cancer and other cancers” (IMMATICS BIOTECHNOLOGIES GMBH, priority 2015, dated 2019).
# Molecular target: HLA-A*02:01 (Homo sapiens, UniProt P04439, D140Y/D185E/D98H/E176V/E277Q/G131W/G231S/I119V/I121R/I166T/I218V/L300P/L318F/N151K/N90K/P208A/P217A/Q86G/Q94H/R138H/R169H/T345S)
# Assay: MHC binding assay (UV-ligand exchange, anti-β2m ELISA, peptide exchange yield)
# Settings: binding to HLA-A*02:01
# Outline: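 Yield of stabilized complexes quantified via the β2m light chain in an ELISA (streptavidin capture, 100-fold diluted monomers, HRP anti-β2m 2 ug/ml at 37 °C, TMB, A450). The complexes come from UV-triggered replacement of a photocleavable ligand by the candidate peptide.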
row,Substance,"Peptide exchange (MHC class I binding score, peptide exchange yield)"
1,90 (TLLQIIETV; listed as Homo sapiens) [compound 90],“+++” (>50 = +++)
2,22 (IMEENPGIFAV; listed as Homo sapiens) [compound 22],“+++” (>50 = +++)
3,276 (ALFTFSPLTV; listed as Homo sapiens) [compound 276],“+++” (>50 = +++)
4,59 (IMEDIILTL; listed as Homo sapiens) [compound 59],“+++” (>50 = +++)
5,225 (SLLKVLPAL; listed as Homo sapiens) [compound 225],“+++” (>50 = +++)
6,233 (VLSETLYEL; listed as Homo sapiens) [compound 233],“++” (>20% = ++)
7,211 (LLWPGAALL; listed as Homo sapiens) [compound 211],“++” (>20% = ++)
8,379 (IMEGTLTRV; listed as Homo sapiens) [compound 379],“++” (>20% = ++)
9,312 (IISDLTIAL; listed as Homo sapiens) [compound 312],“+++” (>50 = +++)
10,274 (SLLFSLFEA; listed as Homo sapiens) [compound 274],“++” (>20% = ++)
11,357 (SMHDLVLQV; listed as Homo sapiens) [compound 357],“+++” (>50 = +++)
12,158 (KLFDVDEDGYI; listed as Homo sapiens) [compound 158],“+++” (>50 = +++)
13,80 (FLYDNLVESL; listed as Homo sapiens) [compound 80],“++” (>20% = ++)
14,287 (FLNEFFLNV; listed as Homo sapiens) [compound 287],“+++” (>50 = +++)
15,277 (LLPPLESLATV; listed as Homo sapiens) [compound 277],“++” (>20% = ++)
16,285 (QLLHVGVTV; listed as Homo sapiens) [compound 285],“+++” (>50 = +++)
17,202 (ALLDQQGSRWTL; listed as Homo sapiens) [compound 202],“+++” (>50 = +++)
18,231 (FLSPQQPPLLL; listed as Homo sapiens) [compound 231],“++” (>20% = ++)
19,269 (RVLEVGALQAV; listed as Homo sapiens) [compound 269],“++” (>20% = ++)
20,351 (SLIPNLRNV; listed as Homo sapiens) [compound 351],“+++” (>50 = +++)

row,Substance,"Peptide exchange (MHC class I binding score, peptide exchange yield)"
1,305 (SIANFSEFYV; listed as Homo sapiens) [compound 305],“++++” (>75% = ++++)
2,77 (ILVEADGAWVV; listed as Homo sapiens) [compound 77],“++++” (>75% = ++++)
3,92 (YLIPFTGIVGL; listed as Homo sapiens) [compound 92],“++” (>20% = ++)
4,206 (VLQEGKLQKLAQL; listed as Homo sapiens) [compound 206],“+++” (>50 = +++)
5,121 (GVVDPRAISVL; listed as Homo sapiens) [compound 121],“++” (>20% = ++)
6,25 (FLPDEPYIKV; listed as Homo sapiens) [compound 25],“+++” (>50 = +++)
7,370 (SLLQDLVSV; listed as Homo sapiens) [compound 370],“+++” (>50 = +++)
8,232 (ALLEAQDVELYL; listed as Homo sapiens) [compound 232],“++” (>20% = ++)
9,47 (ILLSVPLLVV; listed as Homo sapiens) [compound 47],“++” (>20% = ++)
10,375 (SLTETIEGV; listed as Homo sapiens) [compound 375],“++” (>20% = ++)
11,376 (AMFESSQNVLL; listed as Homo sapiens) [compound 376],“++” (>20% = ++)
12,280 (VLPDPEVLEAV; listed as Homo sapiens) [compound 280],“+++” (>50 = +++)
13,89 (YILPTETIYV; listed as Homo sapiens) [compound 89],“++++” (>75% = ++++)
14,114 (SLVGEPILQNV; listed as Homo sapiens) [compound 114],“++” (>20% = ++)
15,146 (SLATAGDGLIEL; listed as Homo sapiens) [compound 146],“++” (>20% = ++)
16,173 (LLDSASAGLYL; listed as Homo sapiens) [compound 173],“+++” (>50 = +++)
17,365 (YVIDQGETDVYV; listed as Homo sapiens) [compound 365],“+++” (>50 = +++)
18,41 (SLMPHIPGL; listed as Homo sapiens) [compound 41],“+++” (>50 = +++)
19,9 (GAAKDLPGV; listed as Homo sapiens) [compound 9],“++” (>20% = ++)
20,31 (YLAPELFVNV; listed as Homo sapiens) [compound 31],“++” (>20% = ++)

# Other lines, results leading:
row,"Peptide exchange (MHC class I binding score, peptide exchange yield)",Substance
1,“+++” (>50 = +++),589 (KLYPQLPAEI; listed as Homo sapiens) [compound 589]
2,“+++” (>50 = +++),508 (ILAQEQLVVGV; listed as Homo sapiens) [compound 508]
3,“+++” (>50 = +++),601 (SAFPFPVTV; listed as Homo sapiens) [compound 601]
4,“++” (>20% = ++),408 (VLDDSIYLV; listed as Homo sapiens) [compound 408]
5,“+++” (>50 = +++),530 (VMYADIGGMDI; listed as Homo sapiens) [compound 530]
6,“+++” (>50 = +++),397 (YLFGERLLEC; listed as Homo sapiens) [compound 397]
7,“+++” (>50 = +++),558 (GLLENIPRV; listed as Homo sapiens) [compound 558]
8,“++” (>20% = ++),428 (KLGHTDILVGV; listed as Homo sapiens) [compound 428]
9,“+++” (>50 = +++),572 (ALADLIEKELSV; listed as Homo sapiens) [compound 572]
10,“+++” (>50 = +++),426 (RLADKSVLV; listed as Homo sapiens) [compound 426]
11,“+++” (>50 = +++),564 (TVTNAVVTV; listed as Homo sapiens) [compound 564]
12,“+++” (>50 = +++),517 (LLMPIPEGLTL; listed as Homo sapiens) [compound 517]
13,“++” (>20% = ++),526 (RLAEVGQYEQV; listed as Homo sapiens) [compound 526]
14,“+++” (>50 = +++),539 (ALFDAQAQV; listed as Homo sapiens) [compound 539]
15,“+++” (>50 = +++),452 (ILLEHGADPNL; listed as Homo sapiens) [compound 452]
16,“++” (>20% = ++),393 (GLLDTQTSQVLTA; listed as Homo sapiens) [compound 393]
17,“+++” (>50 = +++),547 (TLDITPHTV; listed as Homo sapiens) [compound 547]
18,“+++” (>50 = +++),605 (KLYEAVPQL; listed as Homo sapiens) [compound 605]
19,“++” (>20% = ++),431 (SLVNVVPKL; listed as Homo sapiens) [compound 431]
20,“++” (>20% = ++),392 (ALLHPQGFEV; listed as Homo sapiens) [compound 392]
21,“++” (>20% = ++),385 (SLLEQGLVEA; listed as Homo sapiens) [compound 385]
22,“+++” (>50 = +++),442 (GLLGGGGVLGV; listed as Homo sapiens) [compound 442]
23,“++++” (>75% = ++++),585 (ALWDLAADKQTL; listed as Homo sapiens) [compound 585]
24,“+++” (>50 = +++),485 (NVPDSFNEV; listed as Homo sapiens) [compound 485]
25,“+++” (>50 = +++),608 (SLLSVSHAL; listed as Homo sapiens) [compound 608]
26,“+++” (>50 = +++),616 (VLIDEVESL; listed as Homo sapiens) [compound 616]
27,“+” (>10% = +),520 (LAVHPSGVAL; listed as Homo sapiens) [compound 520]
